Data reported in patent US20260053904A1 (BIOATLA, published 2026).

T1: human EpCAM expressed on cells (CHO, Colo205, 293) (human, UniProt P16422 24-314)
T1 sequence (looked up): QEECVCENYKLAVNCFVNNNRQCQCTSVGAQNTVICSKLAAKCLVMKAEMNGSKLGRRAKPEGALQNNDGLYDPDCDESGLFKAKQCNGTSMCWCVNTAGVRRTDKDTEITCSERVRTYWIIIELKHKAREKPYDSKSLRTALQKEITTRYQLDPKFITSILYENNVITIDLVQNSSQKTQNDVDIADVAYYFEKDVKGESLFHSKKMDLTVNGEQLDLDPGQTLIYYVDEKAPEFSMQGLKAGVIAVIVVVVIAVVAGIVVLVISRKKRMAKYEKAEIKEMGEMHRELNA

T2: recombinant human EpCAM extracellular domain (human, UniProt P16422 24-265)
T2 construct: extracellular domain; Plate-coated antigen of the ELISAs; also called human EpCAM ECD; recombinant EpCAM antigen
T2 sequence (looked up): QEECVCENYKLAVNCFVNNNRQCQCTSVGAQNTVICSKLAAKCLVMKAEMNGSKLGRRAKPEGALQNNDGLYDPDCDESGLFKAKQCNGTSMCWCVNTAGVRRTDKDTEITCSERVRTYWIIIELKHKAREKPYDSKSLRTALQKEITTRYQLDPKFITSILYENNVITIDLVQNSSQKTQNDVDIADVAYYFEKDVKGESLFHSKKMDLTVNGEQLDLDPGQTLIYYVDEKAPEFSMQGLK


Columns and labels:
[1] = molecular target: T1, human EpCAM expressed on cells (CHO, …); assay: cell-based or functional assay
[2] = molecular target: T2, recombinant human EpCAM extracellular …; assay: ELISA on human EpCAM, pH range 5.0 to 7.4
[3] = molecular target: T3, cyno EpCAM (recombinant, ELISA antigen) (cynomolgus monkey); assay: ELISA, cyno EpCAM, pH 6.0
T3 construct: extracellular domain; also called cynomolgus EpCAM extracellular domain
Procedure: (§1) The binding activities of the humanized conditionally active anti-EpCAM antibodies to cyno EpCAM were similarly measured. The EC50 for binding to the cyno EpCAM at pH 6.0 and pH 7.4 for the humanized conditionally active anti-EpCAM antibodies are summarized in Table 7.
(§2) The ELISA assay was performed using the following protocol: [0388] 1) Coat ELISA plates with 100 μL of 0.5 μg/mL (06_20_17 and 06_28_17 Experiments) or 1 μg/mL (07_06_17 and 07_11_17 Experiments) recombinant EpCAM antigen in carbonate-bicarbonate coating buffer [0389] 2) Cover plates with sealing film and incubate overnight at 4° C. [0390] 3) Decant plates and tap out residual liquid on a stack of paper towels [0391] […] 5) Add 200 μL of various pH incubation buffers to the wells according to the sample map.

[4] = molecular target: T3, cyno EpCAM (recombinant, ELISA antigen); assay: ELISA, cyno EpCAM, pH 7.4
Procedure: as §1, §2

[5] = molecular target: T2, recombinant human EpCAM extracellular …; assay: ELISA, human EpCAM, pH 6.0
Procedure: (§3) The binding activities of the humanized conditionally active anti-EpCAM antibodies to human EpCAM were measured by ELISA, using the template antibody BAP-1-5-01-06, as a control. The EC50 values of the humanized conditionally active anti-EpCAM antibodies for binding to human EpCAM at pH 6.0 and pH 7.4 are summarized in Table 5.
as §2

[6] = molecular target: T2, recombinant human EpCAM extracellular …; assay: ELISA, human EpCAM, pH 7.4
Procedure: as §3, §2

[7] = molecular target: T3, cyno EpCAM (recombinant, ELISA antigen); assay: ELISA with pH titration, cyno EpCAM
Procedure: The binding activities of the humanized conditionally active anti-EpCAM antibodies to cyno EpCAM with pH titration was similarly measured by ELISA.
as §2

[8] = molecular target: T2, recombinant human EpCAM extracellular …; assay: ELISA with pH titration, human EpCAM
Procedure: The binding activities of the humanized conditionally active anti-EpCAM antibodies to human EpCAM with pH titration were also measured by ELISA.
as §2

[9] = molecular target: T4, cyno EpCAM expressed on 293 cells (cynomolgus monkey); assay: FACS on 293 cells expressing cyno EpCAM, pH 6.0
T4 construct: whole, on cells; also called 293 cells expressing cyno EpCAM
Procedure: (§4) A similar FACS analysis was also carried out using 293 cells expressing cyno EpCAM. […] The EC50 values for binding to the 293 cells expressing cyno EpCAM by the humanized conditionally active anti-EpCAM antibodies are summarized in Table 11.

[10] = molecular target: T4, cyno EpCAM expressed on 293 cells; assay: FACS on 293 cells expressing cyno EpCAM, pH 7.4
Procedure: as §4

[11] = molecular target: T1, human EpCAM expressed on cells (CHO, …); assay: FACS on 293 cells expressing human EpCAM, pH 6.0
Procedure: (§5) A similar FACS analysis was also carried out using 293 cells expressing human EpCAM. […] The EC50 values for binding to the 293 cells expressing human EpCAM by the humanized conditionally active anti-EpCAM antibodies are summarized in Table 10.

[12] = molecular target: T1, human EpCAM expressed on cells (CHO, …); assay: FACS on 293 cells expressing human EpCAM, pH 7.4
Procedure: as §5

[13] = molecular target: T1, human EpCAM expressed on cells (CHO, …); assay: FACS on Colo205 cells expressing human EpCAM, pH 6.0
Procedure: (§6) Binding activities of the humanized conditionally active anti-EpCAM antibodies to Colo205 cells expressing human EpCAM were measured by FACS at pH 6.0 and pH 7.4. […] The EC50 values for binding to the Colo205 cells expressing human EpCAM by the humanized conditionally active anti-EpCAM antibodies are summarized in Table 9.

[14] = molecular target: T1, human EpCAM expressed on cells (CHO, …); assay: FACS on Colo205 cells expressing human EpCAM, pH 7.4
Procedure: as §6

T4 sequence (Q1WER1 24-314): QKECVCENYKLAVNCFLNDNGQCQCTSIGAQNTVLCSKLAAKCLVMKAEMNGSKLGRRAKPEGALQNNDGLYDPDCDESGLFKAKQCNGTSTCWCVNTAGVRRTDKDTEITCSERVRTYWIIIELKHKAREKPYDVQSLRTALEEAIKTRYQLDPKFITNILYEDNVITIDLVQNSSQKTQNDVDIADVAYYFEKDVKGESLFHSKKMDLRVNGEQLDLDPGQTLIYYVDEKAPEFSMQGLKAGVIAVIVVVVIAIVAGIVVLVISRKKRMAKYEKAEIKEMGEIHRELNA
T3 sequence (Q1WER1 24-265): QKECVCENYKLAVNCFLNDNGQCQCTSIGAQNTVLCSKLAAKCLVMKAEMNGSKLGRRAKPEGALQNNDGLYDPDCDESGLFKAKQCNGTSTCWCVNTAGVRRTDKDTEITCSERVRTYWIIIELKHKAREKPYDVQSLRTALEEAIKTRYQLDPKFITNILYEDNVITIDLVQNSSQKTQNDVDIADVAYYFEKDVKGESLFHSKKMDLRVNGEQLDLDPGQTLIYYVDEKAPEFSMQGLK

| Binder | IC50 for the in vitro killing of Colo205 cells, pH6.0 [1] | IC50 for the in vitro killing of Colo205 cells, pH7.4 [1] | ratio (pH7.4/pH6.0) of the IC50 for the in vitro killing of Colo205 cells [1] | binding result [2] | EC50 [3] | EC50 [4] | EC50 [5] | EC50 [6] | pH inflection point [7] | pH inflection point [8] | EC50 [9] | EC50 [10] | EC50 [11] | EC50 [12] | EC50 [13] | EC50 [14] |
| --- | --- | --- | --- | --- | --- | --- | --- | --- | --- | --- | --- | --- | --- | --- | --- | --- |
| BAP-105-06-01 conjugated to MMAE (antibody, V domains shown, antibody conjugated to MMAE; chain and residues of attachment not stated) VH: EVQLVQSGAEVKKPGATVKISCKVSGYTFTSYWMHWIRQPPGKGLEWIGYIRPSTGYTEYNQKFKDRFTISRDNSKNTLYLQMNSLRAEDTAVYYCGRGDNWVGFANWGQGTLVTVSS VL: EIVLTQSPDFQSVTPKEKVTITCSASSSISYMHWYQQKPGKAPKLLIYSTSKLASGVPDRFSGSGSGTDFTLKISRVEAEDVGVYYCHQWSTYETFGQGTKVEIK | 101 ng/mL | 550 ng/mL | 5.47 |  |  |  |  |  |  |  |  |  |  |  |  |  |
| BAP-105-06-02 conjugated to MMAE (antibody, V domains shown, antibody conjugated to MMAE; chain and residues of attachment not stated) VH: EVQLVQSGAEVKKPGATVKISCKVSGYTFTSYWMHWIRQPPGKGLEWIGYIRPSTGYTEYNQKFKDRFTISRDNSKNTLYLQMNSLRAEDTAVYYCGRGDNWVGFANWGQGTLVTVSS VL: EIVLTQSPDFQSVTPKEKVTITCSASSSISYMHWYQQKPGKAPKLLIYSTSSLASGVPDRFSGSGSGTDFTLKISRVEAEDVGVYYCHQWSTYETFGQGTKVEIK | 146 ng/mL | 708 ng/mL | 4.86 |  |  |  |  |  |  |  |  |  |  |  |  |  |
| BAP-105-01-02 (antibody, V domains shown) VH: QVQLQQSGAELAKPGASVKVSCKASGYTFTSYWMHWVKQRPGQGLEWIGDIRPSTGYTEYNQKFKDKATLTADKSSSTAYMQLSSLTFEDSAVYYCGRGDNWVGFANWGQGTLVTVSA VL: QIVLTQSPAIMSASLGEEIALTCSASSSISYMHWYQQKSGTSPKLLIYSTSNLASGVPSRFSGSGSGTFYSLTISSVEAEDAADYFCHQWSTYHTFGSGTKLEIK |  |  |  | binds |  |  |  |  |  |  |  |  |  |  |  |  |
| BAP-105-01-04 (antibody, V domains shown) VH: QVQLQQSGAELAKPGASVKVSCKASGYTFTSYWMHWVKQRPGQGLEWIGYIRPSTGYTEYNQKFKDKATLTADKSSSTAYMQLSSLTFEDSAVYYCGRGDNWVGFANWGQGTLVTVSA VL: QIVLTQSPAIMSASLGEEIALTCSASSSISYMHWYQQKSGTSPKLLIYSTSNLHSGVPSRFSGSGSGTFYSLTISSVEAEDAADYFCHQWSTYHTFGSGTKLEIK |  |  |  | binds |  |  |  |  |  |  |  |  |  |  |  |  |
| BAP-105-01-05 (antibody, V domains shown) VH: QVQLQQSGAELAKPGASVKVSCKASGYTFTSYWMHWVKQRPGQGLEWIGYIRPSTGYTEYNQKFKDKATLTADKSSSTAYMQLSSLTFEDSAVYYCGRGDNWVGFANWGQGTLVTVSA VL: QIVLTQSPAIMSASLGEEIALTCSASSSISYMHWYQQKSGTSPKLLIYSTSNLASGVPSRFSGSGSGTFYSLTISSVEAEDAADYFCEQWSTYHTFGSGTKLEIK |  |  |  | binds |  |  |  |  |  |  |  |  |  |  |  |  |
| BAP-105.4-02-01 (antibody, V domains shown, Humanized) VH: EVQLVQSGAEVKKPGATVKISCKVSGYTFTSYWMHWVRQAPGQGLEWMGYIRPSTGYTEYNQKFKDRFTISRDNSKNTLYLQMNSLRAEDTAVYYCGRGDNWVGFANWGQGTLVTVSS VL: EIVMTQSPATLSVSPGERATLSCSASSSISYMHWYQQKPGKAPKLLIYSTSNLASGVPSRFSGSGSGTEFTLTISSLQPDDFATYYCHQWSTYETFGQGTKVEIK |  |  |  |  | 0.674 mg/L | 0.0359 mg/L | 0.0154 mg/L | 114 mg/L | 6.17 pH | 6.6 pH | 2.42 mg/L | 14.1 mg/L | 0.215 mg/L | 0.238 mg/L | 0.321 mg/L | 0.652 mg/L |
| BAP-105.4-03-02 (antibody, V domains shown, Humanized) VH: EVQLVQSGAEVKKPGESLRISCKGSGYTFTSYWMHWIRQSPSRGLEWLGYIRPSTGYTEYNQKFKDRVTISADKSISTAYLQWSSLKASDTAMYYCGRGDNWVGFANWGQGTLVTVSS VL: EIVMTQSPATLSVSPGERATLSCSASSSISYMHWYQQKPGKAPKLLIYSTSNLASGIPPRFSGSGYGTDFTLTINNIESEDAAYYFCHQWSTYETFGQGTKVEIK |  |  |  |  | 0.084 mg/L | 0.105 mg/L | 0.0191 mg/L | 0.0487 mg/L | 6.35 pH | 6.82 pH | 1.42 mg/L | 4.46 mg/L | 0.118 mg/L | 0.159 mg/L | 0.497 mg/L | 0.67 mg/L |
| BAP-105.4-01-02 (antibody, V domains shown, Humanized) VH: EVQLVQSGAEVKKPGESLRISCKGSGYTFTSYWMHWIRQSPSRGLEWLGYIRPSTGYTEYNQKFKDRVTISADKSISTAYLQWSSLKASDTAMYYCGRGDNWVGFANWGQGTLVTVSS VL: EIVLTQSPDFQSVTPKEKVTITCSASSSISYMHWYQQKPGKAPKLLIYSTSNLASGVPDRFSGSGSGTDFTLKISRVEAEDVGVYYCHQWSTYETFGQGTKVEIK |  |  |  |  | 0.194 mg/L | 0.208 mg/L | 0.0147 mg/L | 0.066 mg/L | 6.27 pH | 6.87 pH | 1.26 mg/L | 6.36 mg/L | 0.116 mg/L | 0.174 mg/L | 0.273 mg/L | 0.397 mg/L |
